Results: article PMC3285296

How the values were obtained:
Experiment in all cases: co-IP
[1] = target: Flag-tagged glycogen phosphorylase K470Q/K796Q (GP^K2Q) (human) (UniProt P06737)
[2] = target: Flag-tagged glycogen phosphorylase (GP), wild type (human) (UniProt P06737)
[3] = target: Flag-tagged glycogen phosphorylase (GP), wild type (human) (UniProt P06737); remark: listed apart in the source

PP1α co-immunoprecipitated, against wild type GP [1] [fold]	increase of the co-precipitate with NAM+TSA against untreated cells [2] [%]	increase of the co-precipitate in 25 mM glucose against glucose free medium [3] [%]	Molecule
2	> 100		HA-tagged protein phosphatase 1 alpha (HA-PP1α) (from UniProt P62136 1-330) (enzyme)
		100	HA-tagged hepatic glycogen binding subunit GL of PP1 (HA-GL) (natural protein) MMAVDIEYRYNCMAPSLRQERFAFKISPKPSKPLRPCIQLSSKNEASGMVAPAVQEKKVKKRVSFADNQGLALTMVKVFSEFDDPLDMPFNITELLDNIVSLTTAESESFVLDFSQPSADYLDFRNRLQADHVCLENCVLKDKAIAGTVKVQNLAFEKTVKIRMTFDTWKSYTDFPCQYVKDTYAGSDRDTFSFDISLPEKIQSYERMEFAVYYECNGQTYWDSNRGKNYRIIRAELKSTQGMTKPHSGPDLGISFDQFGSPRCSYGLFPEWPSYLGYEKLGPYY
